Experimental data from publication PMC9311320.
“And” between values parts separate entries of the source, which are not always exact repeats. Identical values can stand only once.

How the values were obtained:
[1] = molecular target: recombinant human CD38 extracellular domain (ECD) fused to a his-tag (human) (UniProt P28907); assay: SPR
[2] = molecular target: human CD38 on Chinese hamster ovary (CHO) cells stably transfected to express CD38 (human) (UniProt P28907); assay: flow cytometry on cells
[3] = molecular target: CD38 on CD38+ human cells (Daudi, Ramos, PBMCs) (human (endogenous in Daudi, Ramos and PBMCs)) (UniProt P28907); assay: flow cytometry on cells
[4] = molecular target: TNB-738, anti-CD38 biparatopic antibody (human (from transgenic UniRat) | human); assay: BLI

Kd [1] [nM]	EC50 [2] [nM]	EC50 [3]	Kd [4] [nM]	Substance
0.1 to 3.8	70.2	39.7 nM and 50.3 nM		TNB-738, anti-CD38 biparatopic antibody (bispecific antibody)
			2.48	recombinant human CD38 extracellular domain (ECD) fused to a his-tag (from UniProt P28907 43-300) (domain or fragment)
